Experimental data from US20210292423A1 (published 2021).

B1: 6C9-C9 anti-CD3 antibody (hybridoma supernatant) (antibody, V domains shown)
VH: AVQLVESGGGLVRPKESLKISCAASGFTFRNAAMYWVRQAPGKGLEWVARIRTQPNNYAKYYADSVKDRFTISRDDSKSMVYLQMDNLKTEDTAMYYCTGLVVTAMDAWGQGTSVTVSS
VL: DIQMTQSPSFLSASVGDRVTINCKASQNINKYLNWYQQKLGEAPKLLIYVTNNLQTGIPSRFSGSGSGTDYTLTISSLQPEDVATYFCLQHRSMYTFGTGTKLELK
notes: rat IgG in hybridoma supernatant
B2: 11F9-F8 anti-CD3 antibody (hybridoma supernatant) (antibody, V domains shown)
VH: EVQLVETGGTLVQPGKSLKLTCATSGFTFSNAWMHWVRQSPEKQLEWVAQIKAKSNNYATYYAESVKGRFTISRDDSKTSVYLQLNSLREEDTAIYYCRGTQYGYNPFDYWGQGVMVTVSS
VL: DVVLTQTPVSLSVSLGGQVSISCRSSQSLVHNNGNTYLSWSLQKPGQSPQVLIYKVSNRFSGISNRFSGSGSGTDFTLKISRVEPDDLGVYYCGQGAHYPFTFGSGTKLEIK
notes: as for B1
B3: 13C1-F6 anti-CD3 antibody (hybridoma supernatant) (antibody, V domains shown)
VH: EVQLVETGGTLVQPGKSLKLTCATSGFTFSNAWMHWVRQSPEKQLEWVAQIKAKSNNYATYYAESVKGRFTISRDDSKTSVYLQLNSLREEDTAIYYCRGTQYGYNPFDYWGQGVMVTVSS
VL: DVVMTQSPVSLSVSLGGQVSISCRSSQSLVHNNGNTYLSWYLQRSGQSPQLLIYKVSNRLSGISDRFSGSGSGTDFTLKISRIEPDDLGVYYCGQGTQYPFTFGSGTRLEIK
notes: as for B1
B4: 8H2-F3 anti-CD3 antibody (hybridoma supernatant) (antibody, V domains shown)
VH: QIQLVQSGPELKKPGESVKISCKASGYTFTDFAMNWVKQAPGNGLKWMGWINTQTGKPTYADGFKQRFVFSLETSASTIYLQINNLNIEDTATYFCTRGALASVGQGVMVTVSS
VL: DVVMTQTPVSLSVAIGQPASISCKSSQSLVGTSGKTYLNWLLQRPGQSPKRLIYLVSKLDSGIPDRFSGSGSETDFTLKISRVETDDLGVYYCLQGSHFPLTFGSGTKLEIK
notes: as for B1
B5: 4B4-D7 anti-CD3 antibody (hybridoma supernatant) (antibody, V domains shown)
VH: EVQLVETGGRLVQPGRSLKLTCATSGFTFSNAWMHWVRQSPEKQLEWVAQIKARSNNYATYYAESVKGRFTISRDDSKSTIYLQMNSLKEEDTAIYYCRGTYYASKPFDYWGQGVMVTVSS
VL: DVVMTQTPVSLSVSLGGQVSISCRSSQSLVHDNGNTYLSWSLQRPGQSPQVLIYKVSNRFSGTSDRFTGSGSGTDFTLKISRVEPDDLGVYYCGQGTQYPFTFGSGTKLEIK
notes: as for B1
B6: 4E7-C9 anti-CD3 antibody (hybridoma supernatant) (antibody, V domains shown)
VH: EVQVVETGGSLVQPGKSLKLTCATSGFTFSNAWMHWVRQSPEKQLEWVAQIKDKSNNYATYYAESLKGRFTISRDDPKRSIYLQMNSLREEDTAIYYCRYVHYGIGYAMDAWGQGTSVTVSS
VL: DVVMTQTPVSLSVSLGGQVSISCRSSQSLEHNNGNTYLSWYLQKPGQSPQPLIYKVSNRFSGISDRFSGSGSGTDFTLKISRVEPDDLGVYYCGQGTQYPFTFGPGTKLELK
notes: as for B1
B7: 11D7-C3 anti-CD3 antibody (hybridoma supernatant) (antibody, V domains shown)
VH: EVQFVETGGSLVQPGKSLKLTCATSGFTFSNAWMHWVRQSPEKQLEWVAQIKAKSNNYATYYAESVKGRFTISRDDSKSSVYLQMNSLKEEDTATYYCRGLYYGLSPSDYWGQGVMVTVSS
VL: DVVMTQTPVSLSVSLGGQVSISCRSSQSLVHNNGNTYLSWYLQKPGQSPQLLIYKVSNRFSGISDRFSGSGSGTDFTLKISRVEPDDLGVYYCGQGTHYPFTFGSGTKLEIK
notes: as for B1
B8: 13H2-C3 anti-CD3 antibody (hybridoma supernatant) (antibody, V domains shown)
VH: EEELVETGGSLVQPGKSLKLTCATSGFTFSNAWMHWVRQSPDKQLEWVAQIKAKSNNYATYYAESVKGRFTISRDDSKSSVYLQMNNLKEEDTAIYYCRYVHYGLAPMDAWGQGTSVTVSS
VL: DVVMTQTPVSLSVSLGGQVSISCRSSQSLVHNNGNTYLSWYLQKAGQSPQLLIYKVSNRFSGISDRFSGSGSGTDFILKISRVEPDDLGVFYCGQGTQYPFTFGAGTKLELK
notes: rat IgG in hybridoma supernatant; also called 13H2-C2
B9: 10E6-G6 anti-CD3 antibody (hybridoma supernatant) (antibody, V domains shown)
VH: EVQLVETGGGLVQSGKSLKLTCATSGFTVTNAWMHWVRQSPEKQLEWVAQIKAKSNNYETYYAESVKGRFTISRDDSKSSVYLQMNSLKEEDTAIYYCRGTQYGYNPFDYWGQGVMVTVSS
VL: DVVMTQSPVSLSVSLGGQVSISCRSSQSLVHNNGYTYLSWYLQKPGQSPQVFIYKVSNRFSGISDRFSGSGSGTDFTLKISRIEPDDLGVYYCGQGTHYPFTFGSGTKLEIK
notes: as for B1
B10: 12G3-E8 anti-CD3 antibody (hybridoma supernatant) (antibody, V domains shown)
VH: EVRVVETGGSLVQPGKSLKLTCATSGFTFSLAWMHWVRQSPEKKLEWVAQIKDKANNYATYYAESVKGRFTISRDDSKRSVYLQMNRLKEEDTAIYYCRGVYYGFSMTPFDYWGQGVMVTVSS
VL: DVAMTQTPVSLSVSLGGQVSISCRSSQSLVHNNGNTYLSWYLQKPGQSPQVLIYKVSNRFSGISDRFSGSGSGADFTLKISRVEPDDLGVYYCGQGTQYPFTFGAGTKLELK
notes: as for B1
B11: 11F3-B9 anti-CD3 antibody (hybridoma supernatant) (antibody, V domains shown)
VH: EVQLVETGGSLVQPGKSLTLTCATSGFTFSNAWMHWVRQSPEKQLEWVAQIKAKSNNYATYYAESVKGRFTISRDDSKRSVYLQMNSLKEEDTAIYYCRYVNYGLAPMDVWGQGTSVTVSS
VL: DVVMTQTPVSLSVSLGGQVSISCRSSQSLVHDNGNTYLSWYLQKPGQSPQLLIYKVSNRFSGFSDRFSGSGSGTDFTLKISRVEPDDLGVYYCGQGTQYPFTFGAGTKLELK
notes: as for B1
B12: CODV-Fab 7G3 × 20G6 with humanized 20G6 VL1C_VH1D (bispecific antibody)
light: DIVMTQTPLSLSVTPGQPASISCKSSQSLVHNNANTYLSWYLQKPGQSPQSLIYKVSNRFSGVPDRFSGSGSGTDFTLKISRVEAEDVGVYYCGQGTQYPFTFGSGTKVEIKGQPKAAPDFVMTQSPSSLTVTAGEKVTMSCKSSQSLLNSGNQKNYLTWYLQKPGQPPKLLIYWASTRESGVPDRFTGSGSGTDFTLTISSVQAEDLAVYYCQNDYSYPYTFGGGTKLEIKTKGPSRTVAAPSVFIFPPSDEQLKSGTASVVCLLNNFYPREAKVQWKVDNALQSGNSQESVTEQDSKDSTYSLSSTLTLSKADYEKHKVYACEVTHQGLSSPVTKSFNRGEC
heavy: EVQLQQSGPELVKPGASVKMSCKASGYTFTDYYMKWVKQSHGKSLEWIGDIIPSNGATFYNQKFKGKATLTVDRSSSTAYMHLNSLTSEDSAVYYCTRSHLLRASWFAYWGQGTLVTVSASQVQLVESGGGVVQPGRSLRLSCAASGFTFTKAWMHWVRQAPGKQLEWVAQIKDKSNSYATYYADSVKGRFTISRDDSKNTLYLQMNSLRAEDTAVYYCRGVYYALSPFDYWGQGTLVTVSSRTASTKGPSVFPLAPSSKSTSGGTAALGCLVKDYFPEPVTVSWNSGALTSGVHTFPAVLQSSGLYSLSSVVTVPSSSLGTQTYICNVNHKPSNTKVDKKVEPKSCDKTHTHHHHHH
B13: CODV-Fab 7G3 × 20G6 with humanized 20G6 VL1D_VH1C (bispecific antibody)
light: DIVMTQTPLSLSVTPGQPASISCKSSQSLVHNNGNTYLSWYLQKPGQSPQSLIYKVSNRFSGVPDRFSGSGSGTDFTLKISRVEAEDVGVYYCGQGTQYPFTFGSGTKVEIKGQPKAAPDFVMTQSPSSLTVTAGEKVTMSCKSSQSLLNSGNQKNYLTWYLQKPGQPPKLLIYWASTRESGVPDRFTGSGSGTDFTLTISSVQAEDLAVYYCQNDYSYPYTFGGGTKLEIKTKGPSRTVAAPSVFIFPPSDEQLKSGTASVVCLLNNFYPREAKVQWKVDNALQSGNSQESVTEQDSKDSTYSLSSTLTLSKADYEKHKVYACEVTHQGLSSPVTKSFNRGEC
heavy: EVQLQQSGPELVKPGASVKMSCKASGYTFTDYYMKWVKQSHGKSLEWIGDIIPSNGATFYNQKFKGKATLTVDRSSSTAYMHLNSLTSEDSAVYYCTRSHLLRASWFAYWGQGTLVTVSASQVQLVESGGGVVQPGRSLRLSCAASGFTFTKAWMHWVRQAPGKQLEWVAQIKDKSNSYATYYAASVKGRFTISRDDSKNTLYLQMNSLRAEDTAVYYCRGVYYALSPFDYWGQGTLVTVSSRTASTKGPSVFPLAPSSKSTSGGTAALGCLVKDYFPEPVTVSWNSGALTSGVHTFPAVLQSSGLYSLSSVVTVPSSSLGTQTYICNVNHKPSNTKVDKKVEPKSCDKTHTHHHHHH
B14: CODV-Fab 7G3 × 20G6 with humanized 20G6 VL1D_VH1D (bispecific antibody)
light: DIVMTQTPLSLSVTPGQPASISCKSSQSLVHNNGNTYLSWYLQKPGQSPQSLIYKVSNRFSGVPDRFSGSGSGTDFTLKISRVEAEDVGVYYCGQGTQYPFTFGSGTKVEIKGQPKAAPDFVMTQSPSSLTVTAGEKVTMSCKSSQSLLNSGNQKNYLTWYLQKPGQPPKLLIYWASTRESGVPDRFTGSGSGTDFTLTISSVQAEDLAVYYCQNDYSYPYTFGGGTKLEIKTKGPSRTVAAPSVFIFPPSDEQLKSGTASVVCLLNNFYPREAKVQWKVDNALQSGNSQESVTEQDSKDSTYSLSSTLTLSKADYEKHKVYACEVTHQGLSSPVTKSFNRGEC
heavy: EVQLQQSGPELVKPGASVKMSCKASGYTFTDYYMKWVKQSHGKSLEWIGDIIPSNGATFYNQKFKGKATLTVDRSSSTAYMHLNSLTSEDSAVYYCTRSHLLRASWFAYWGQGTLVTVSASQVQLVESGGGVVQPGRSLRLSCAASGFTFTKAWMHWVRQAPGKQLEWVAQIKDKSNSYATYYADSVKGRFTISRDDSKNTLYLQMNSLRAEDTAVYYCRGVYYALSPFDYWGQGTLVTVSSRTASTKGPSVFPLAPSSKSTSGGTAALGCLVKDYFPEPVTVSWNSGALTSGVHTFPAVLQSSGLYSLSSVVTVPSSSLGTQTYICNVNHKPSNTKVDKKVEPKSCDKTHTHHHHHH
notes: same V domains as hz20G6x7G3 but the other order

Target: T1, human CD3ε/δ-Fc fusion protein (soluble recombinant CD3ε/δ complex) (human, UniProt P04234 22-105)
T1 construct: also called huCD3ε/δ; huCD3; not shown: hinge, CH2, CH3 of human IgG with tag
T1 sequence (chain, as listed by the source mutant, chain 1 of 2): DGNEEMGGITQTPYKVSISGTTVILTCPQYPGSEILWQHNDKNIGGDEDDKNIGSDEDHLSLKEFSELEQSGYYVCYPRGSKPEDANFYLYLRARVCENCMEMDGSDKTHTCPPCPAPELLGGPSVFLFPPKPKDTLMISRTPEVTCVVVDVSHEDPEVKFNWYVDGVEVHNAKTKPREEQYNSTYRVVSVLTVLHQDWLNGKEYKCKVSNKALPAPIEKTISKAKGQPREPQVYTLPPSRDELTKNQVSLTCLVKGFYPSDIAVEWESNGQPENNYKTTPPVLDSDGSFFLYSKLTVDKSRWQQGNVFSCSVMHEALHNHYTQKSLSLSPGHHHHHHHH
T1 sequence (P04234 22-105, stated change not applied, chain 2 of 2): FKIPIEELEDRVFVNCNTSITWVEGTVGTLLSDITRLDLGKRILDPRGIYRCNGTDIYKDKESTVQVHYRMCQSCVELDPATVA
Assay: SPR single point, hybridoma supernatant
Method: Rats with positive sera were scarified and B cells were fused with mouse myeloma cells. The resulting hybrndomas were screened on HEK293 cells transfected with human or cynomoligus CD3ε and CD3δ expression plasmids, on Jurkat E6.1 (CD3+) and Jurkat T3.5 (CD3-) by flow cytometry. Supernatant of Hybridoma clones was used to assess by surface plasmon resonance single point kinetic against human and Macaca fascicularis CD3ε/δ complex by fixing the analyte at 25 nM (data presented in table 3).

Row | Binder | RU at 25 nM [RU]
1 | B1 | 26
2 | B2 | 11.5
3 | B3 | 17
4 | B4 | 32.5
5 | B5 | 11
6 | B6 | 2.5
7 | B7 | 17
8 | B8 | 16
9 | B9 | 10.5
10 | B10 | 24
11 | B11 | 22

Target: T1, human CD3ε/δ-Fc fusion protein (soluble …)
Assay: SPR Biacore, CODV-Fab on recombinant CD3ε/δ
Method: Binding affinities of anti-CD3 binding Fabs or CODV-Fabs were measured by surface plasmon resonance (SPR) using a Biacore3000 instrument (GE Healthcare). Assay buffer was HBS-EP (BR-1001-88, GE Healthcare). Capture of CD3ε/δ-Fc fusion proteins was achieved using the human antibody capture kit (GE Healthcare). […] The CD3εδ-Fc fusions proteins were captured at 10 μl/min to approx. 70 RU to yield Rmax values of 30 RU. Binding kinetics with the anti-CD3 Fabs or CODV-Fabs was measured at 30 μl/min for 240 sec. and 600 sec. for association and dissociation phase, respectively. Twofold dilutions of Fabs from 3 to 400 nM in assay buffer were used. All Fab concentrations were run in duplicate together with duplicate buffer blanks for double referencing. Regeneration of the capture surface was performed with a 1 min injection of 3M MgCl2 solution at 30 μl/min. For data analysis the BIAevaluation software v.4.1 (GE Healthcare) was used. Data were fit globally using a 1:1 Langmuir model with mass transfer.

Row | Binder | Kd [nM] | koff [s⁻¹] | kon [M⁻¹ s⁻¹]
12 | B12 | 44 | 0.00101 | 23000
13 | B13 | 32.1 | 0.000713 | 22200
14 | B14 | 31 | 0.000746 | 24000
